Here are results for 1 protein from US6500670.

This data set addresses T1, human pyruvate dehydrogenase E1alpha/E1beta subunit complex, co-expressed in and purified from E. coli M15, P08559.
T1 chain 1: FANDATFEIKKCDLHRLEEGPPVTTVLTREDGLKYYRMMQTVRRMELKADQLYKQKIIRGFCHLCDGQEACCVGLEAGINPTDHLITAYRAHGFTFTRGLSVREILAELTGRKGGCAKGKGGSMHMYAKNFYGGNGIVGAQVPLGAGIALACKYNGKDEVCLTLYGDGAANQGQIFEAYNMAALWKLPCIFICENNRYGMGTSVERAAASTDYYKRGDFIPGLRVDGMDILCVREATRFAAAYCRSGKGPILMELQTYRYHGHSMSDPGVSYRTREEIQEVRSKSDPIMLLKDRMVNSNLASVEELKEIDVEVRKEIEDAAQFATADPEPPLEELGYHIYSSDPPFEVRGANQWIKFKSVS
T1 chain 2: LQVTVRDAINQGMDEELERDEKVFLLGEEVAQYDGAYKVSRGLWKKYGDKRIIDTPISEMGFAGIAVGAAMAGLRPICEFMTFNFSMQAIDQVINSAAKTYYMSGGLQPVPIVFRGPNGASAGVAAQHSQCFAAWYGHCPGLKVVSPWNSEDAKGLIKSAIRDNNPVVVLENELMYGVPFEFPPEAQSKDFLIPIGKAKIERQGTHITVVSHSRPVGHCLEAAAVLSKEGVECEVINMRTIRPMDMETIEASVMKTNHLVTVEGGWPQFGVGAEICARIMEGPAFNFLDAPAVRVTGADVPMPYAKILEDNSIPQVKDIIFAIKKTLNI

B1: Arabidopsis thaliana pyruvate dehydrogenase kinase (PDHK) fusion protein, product of clone YA5 expressed in E. coli from construct pZTa5 (pTrcHisB vector) (protein)
chain: MAVKKACEMFPKSLIEDVHKWGCMKQTGVSLRYMMEFGSKPTERNLLISAQFLHKELPIRVARRAIELQTLPYGLSDKPAVLKVRDWYLESFRDMRAFPEIKDSGDEKDFTQMIKAVKVRHNNVVPMMALGVNQLKKGMNSGNLDEIHQFLDRFYLSRIGIRMLIGQHVELHNPNPPLHTVGYIHTKMSPMEVARNASEDARSICFREYGSAPEINIYGDPSFTFPYVPTHLDLMMYELVKNSLRAVQERFVDSDRVAPPIRIIVADGIEDVTIKVSDEGGGIARSGLPRIFTYLYSTARNPLEEDVDLGIADVPGTMGGYGYGLPISRLYARYFGGDLQIISMEGYGTDAYLHLSRLGDSQEPLP
Turning to B1, the “in vitro phosphorylation (incorporation of 32P from gamma-32P-ATP into the E1 subunit; SDS-PAGE and autoradiography; 2, 5, 10, 15, 20 min)” value is given as “time-dependent (incubation times of 2, 5, 10, 15, or 20 min) in vitro phosphorylation of the E1α/E1β complex substrate by the action of the plant PDHK (clone YA5) fusion protein”.
